# Data taken from the DeepSol protein solubility set.
# Assay: soluble on expression in E. coli; label from the status in PepcDB or PDB records
row,Sequence,soluble on expression in E. coli
1,MLNLSRLSRKLLGWLGRPLSAAHSGEVRQRGPQTHVIILDGTMSTLEPGRETHAGQTYRLMCEMGARVSVFYEAGVQWTSWRTTPDVMMGRGLNRQIRRAYGYLASRYRPGDRIFLIGYSRGAYAVRSLAGVIDMVGLLKAEHATVRNIRQAYRHYECDVQGPHAQVFRDLYCHRDVMIEMVGVWDTVKALGLRLPVLWRLSEQRHAFHSHHLGRSVRHGYHALALNETRNVFEPILWDCKPEFRGHVEQVWFRGTHGDVGGQLGGDERARPLANLSLVWMLERAEHLGLPLPKDWHARFPTDPNAPSVGTWSGWGKIFLLRSARTVGRDPSERLHESVIGDTLPEGLPAPYLRSRSFGLEHHHHHH,soluble
2,MLNNGTFPLVFQFIHRRRKLLYYTKYHIFQQQLADGALEVEYCEASLYSMKEIKEINRELKRDYKRFQNRILELERNNEEYLVDDIVEFKKKKSHRSYLLMQYIETQISYKKKMGKDGIAAAYHSTYISLKKYIGMKSARKSDIRMEEINFSFVVGYEDYLNAQGLARNTINYYLRNFRTIYNSSIRDGFKPKSENPFTYIQTKPCKTIKRAINKDDMKKLSSLILPVHSGMDIARDMYLFSFYAQGMAFVDIVFLKKKNIRDGILSYRRHKSQQLIHIVITPQMQGLIDKYANDSEYVFPIIDTSLSTSIYDQYRLALGRVNRYLKKITFRLNINVRLTTYTARHTWATLARESGAPISIISAGLGHTSEEMTRVYLKEFDQETLARVNRIVTNLL,not soluble
3,MLNQKIQNPNPDELMIEVDLCYELDPYELKLDEMIEAEPEPEMIEGLPASDALTPADRYLELFEHVQSAKIFPDSKTFPDCAPKMDPLDILIRYRKVRRHRDFDLRKFVENHFWLPEVYSSEYVSDPQNSLKEHIDQLWPVLTREPQDHIPWSSLLALPQSYIVPGGRFSETYYWDSYFTMLGLAESGREDLLKCMADNFAWMIENYGHIPNGNRTYYLSRSQPPVFALMVELFEEDGVRGARRYLDHLKMEYAFWMDGAESLIPNQAYRHVVRMPDGSLLNRYWDDRDTPRDESWLEDVETAKHSGRPPNEVYRDLRAGAASGWDYSSRWLRDTGRLASIRTTQFIPIDLNAFLFKLESAIANISALKGEKETEALFRQKASARRDAVNRYLWDDENGIYRDYDWRREQLALFSAAAIVPLYVGMANHEQADRLANAVRSRLLTPGGILASEYETGEQWDKPNGWAPLQWMAIQGFKMYGDDLLGDEIARSWLKTVNQFYLEQHKLIEKYHIADGVPREGGGGEYPLQDGFGWTNGVVRRLIGLYGEPLEHHHHHH,not soluble
4,MLNSFKLSLQYILPKLWLTRLAGWGASKRAGWLTKLVIDLFVKYYKVDMKEAQKPDTASYRTFNEFFVRPLRDEVRPIDTDPNVLVMPADGVISQLGKIEEDKILQAKGHNYSLEALLAGNYLMADLFRNGTFVTTYLSPRDYHRVHMPCNGILREMIYVPGDLFSVNHLTAQNVPNLFARNERVICLFDTEFGPMAQILVGATIVGSIETVWAGTITPPREGIIKRWTWPAGENDGSVALLKGQEMGRFKLGSTVINLFAPGKVNLVEQLESLSVTKIGQPLAVSTETFVTPDAEPAPLPAEEIEAEHDASPLVDDKKDQVMGHHHHHHSH,not soluble
5,MLNSVKKLLGDSQKRKLKKYEQLVQEINNLEEKLSDLSDEELRHKTITFKDMLRDGKTVDDIKVEAFAVVREAAKRVLGLRHYDVQLIGGLVLLEGNIAEMPTGEGKTLVSSLPTYVRALEGKGVHVITVNDYLAKRDKELIGQVHEFLGLKVGLNIPQIDPSEKKLAYEADITYGIGTEFGFDYLRDNMAASKNEQVQRPYHFAIIDEIDSVLIDEAKTPLIIAGKKSSSSDLHYLCAKVIKSFQDTLHYTYDAESKSASFTEDGITKIEDLFDIDNLYDLEHQTLYHYMIQALRAHVAFQCDVDYIVHDEKILLVDIFTGRVMDGRSLSDGLHQALEAKEGLEITEENQTQASITIQNFFRMYPALSGMTGTAKTEEKEFNRVYNMEVMPIPTNRPIIREDKKDVVYVTADAKYKAVREDVLKHNKQGRPILIGTMSILQSETVARYLDEANITYQLLNAKSAEQEADLIATAGQKGQITIATNMAGRGTDILLGEGVHELGGLHVIGTERHESRRVDNQLKGRAGRQGDPGSSQFFLSLEDEMLKRFAQEEVEKLTKSLKTDETGLILTSKVHDFVNRTQLICEGSHFSMREYNLKLDDVINDQRNVIYKLRNNLLQEDTNMIEIIIPMIDHAVEAISKQYLVEGMLPEEWDFASLTASLNEILSVENMPSLSANNVHSPEDLQSVLKETLSLYKERVNELDSNTDLQQSLRYVALHFLDQNWVNHLDAMTHLKEGIGLRQYQQEDPTRLYQKEALDIFLYTYGNFEKEMCRYVARHLGVPENVQ,not soluble
6,MLNTLIVGASGYAGAELVTYVNRHPHMNITALTVSAQSNDAGKLISDLHPQLKGIVELPLQPMSDISEFSPGVDVVFLATAHEVSHDLAPQFLEAGCVVFDLSGAFRVNDATFYEKYYGFTHQYPELLEQAAYGLAEWCGNKLKEANLIAVPGCYPTAAQLALKPLIDADLLDLNQWPVINATSGVSGAGRKAAISNSFCEVSLQPYGVFTHRHQPEIATHLGADVIFTPHLGNFPRGILETITCRLKSGVTQAQVAQALQQAYAHKPLVRLYDKGVPALKNVVGLPFCDIGFAVQGEHLIIVATEDNLLKGAAAQAVQCANIRFGYAETQSLI,not soluble
7,MLPEKSEIVVIGGGIVGVTIAHELAKRGEEVTVIEKRFIGSGSTFRCGTGIRQQFNDEANVRVMKRSVELWKKYSEEYGFSFKQTGYLFLLYDDEEVKTFKRNIEIQNKFGVPTKLITPEEAKEIVPLLDISEVIAASWNPTDGKADPFEATTAFAVKAKEYGAKLLEYTEVKGFLIENNEIKGVKTNKGIIKTGIVVNATNAWANLINAMAGIKTKIPIEPYKHQAVITQPIKRGTINPMVISFKYGHAYLTQTFHGGIIGGIGYEIGPTYDLTPTYEFLREVSYYFTKIIPALKNLLILRTWAGYYAKTPDSNPAIGRIEELNDYYIAAGFSGHGFMMAPAVGEMVAELITKGKTKLPVEWYDPYRFERGELRTAALQMG,soluble
8,MLPKAARIPHAMTLHGDTRIDNYYWLRDDTRSQPEVLDYLQQENSYGHRVMASQQALQDRILKEIIDRIPQREVSAPYIKNGYRYRHIYEPGCEYAIYQRQSAFSEEWDEWETLLDANKRAAHSEFYSMGGMAITPDNTIMALAEDFLSRRQYGIRFRNLETGNWYPELLDNVEPSFVWANDSWIFYYVRKHPVTLLPYQVWRHAIGTPASQDKLIYEEKDDTYYVSLHKTTSKHYVVIHLASATTSEVRLLDAEMADAEPFVFLPRRKDHEYSLDHYQHRFYLRSNRHGKNFGLYRTRMRDEQQWEELIPPRENIMLEGFTLFTDWLVVEERQRGLTSLRQINRKTREVIGIAFDDPAYVTWIAYNPEPETARLRYGYSSMTTPDTLFELDMDTGERRVLKQTEVPGFYAANYRSEHLWIVARDGVEVPVSLVYHRKHFRKGHNPLLVYGYGSYGASIDADFSFSRLSLLDRGFVYAIVHVRGGGELGQQWYEDGKFLKKKNTFNDYLDACDALLKLGYGSPSLCYAMGGSAGGMLMGVAINQRPELFHGVIAQVPFVDVVTTMLDESIPLTTGEFEEWGNPQDPQYYEYMKSYSPYDNVTAQAYPHLLVTTGLHDSQVQYWEPAKWVAKLRELKTDDHLLLLCTDMDSGHGGKSGRFKSYEGVAMEYAFLVALAQGTLPATPAD,not soluble
9,MLPSTMFLVHLPLSTNRLHCLRNTSLESCLCSFVHLNHPLHISDPVILISLHEAVRFSFAFSFPRGTLSIAYCLMSSVSTSSEAIMSTELLANYCHSSLHVCICISSFPNETGNHDSFPGAVVSISDQPTDQCKLAAKELPLRNLLECRFFDCMGEEDLINLGVIGTER,soluble
10,MLPSWKAFKAHNILRILTRFQSTKIPDAVIGIDLGTTNSAVAIMEGKVPRIIENAEGSRTTPSVVAFTKDGERLVGEPAKRQSVINSENTLFATKRLIGRRFEDAEVQRDINQVPFKIVKHSNGDAWVEARNRTYSPAQIGGFILNKMKETAEAYLAKSVKNAVVTVPAYFNDAQRQATKDAGQIIGLNVLRVVNEPTAAALAYGLDKSEPKVIAVFDLGGGTFDISILDIDNGIFEVKSTNGDTHLGGEDFDIYLLQEIISHFKKETGIDLSNDRMAVQRIREAAEKAKIELSSTLSTEINLPFITADAAGPKHIRMPFSRVQLENITAPLIDRTVDPVKKALKDARITASDISDVLLVGGMSRMPKVADTVKKLFGKDASKAVNPDEAVALGAAIQAAVLSGEVTDVLLLDVTPLSLGIETLGGVFTKLIPRNSTIPNKKSQIFSTAASGQTSVEVKVFQGERELVKDNKLIGNFTLAGIPPAPKGTPQIEVTFDIDANGIINVSAKDLASHKDSSITVAGASGLSDTEIDRMVNEAERYKNQDRARRNAIETANKADQLANDTENSIKEFEGKLDKTDSQRLKDQISSLRELVSRSQAGDEVNDDDVGTKIDNLRTSSMKLFEQLYKNSDNPETKNGRENK,not soluble
11,MLQDADRTRILAISPHLDDAVLSVGASLAQAEQDGGKVTVFTVFAGSAAPPYSPAAERFHARWGLSPTEDAPLRRRNEDIAALDQLGAGHRHGRFLDAIYRRSPDGQWLLHHNEGSMVRQQSPANNHDLVAAIREDIESMIAECDPTLVLTCVAIGKHPDHKATRDATLLAARERGIPLRLWQDLPYAAYSQDLAELPDGLRLGSPELSFVDEEARTRKFQAMKHYATQLSVLDGPNKNLFAKLDEHARNAAPDGGYNETTWPVIRYAAE,soluble
12,MLRYLLLSMYLFYIKKRRCHHFFIIVNIILSVSMQNDNLPFKITACVYKIV,not soluble
13,MLSGTLFHKDVSIYSLFEELADKLNQKIEKRERLVKASRDVTYQSKKAIYLLHRAADEDLFSICSSAKEQLENIRQLICKLLLPELSAEEYFRFHSVFTIALQEYTEARLFLSYLSEGRALTLDEINAEISQQWQSLLENSEEARIY,soluble
14,MLSSLRRVVPSLPRGSRSLTSQQIFDREKKFGCHNYKPLPVALSKGEGCFVWDVEGKKYFDFLAAYSAVNQGHCHPKLLKVVQEQASTLTLTSRAFYNNVLGEYEEYVTKLFKYDKVLPMNTGVEACESAVKLARRWAYDVKGVKDNEAVVVFAENNFWGRSIAAISASTDPDSFARFGPFVPGFKTVPYNNLKAVEDAIKDKNVAAFMVEPIQGEAGVVLPDPGYLKGVSDLCKKYNVLFITDEVQSGLGRSGKLLAHYHDNVRPDIVVLGKALSGGFYPVSAVLCDDNVMMNIKPGEHGSTYGGNPLACKVAIAALEILQEEKLVENSAVMGDLLMSKLKTLPKDIVSTVRGKGLFCAIVINKKYDAWKVCLKLKENGLLAKNTHGDIIRFAPPLCINKEQVEQAADIIIKTVTDFAKQN,not soluble
15,MLSSSEKVAGQGVSGAYRELVRLLHRAAKDQLIVTENLPIEADVTHFHTIDFPYYLSTFQKKRSGRKIGYVHFLPATLEGSLKIPFFLKGIVKRYVFSFYNRMEHLVVVNPMFIEDLVAAGIPREKVTYIPNFVNKEKWHPLPQEEVVRLRTDLGLSDNQFIVVGAGQVQKRKGIDDFIRLAEELPQITFIWAGGFSFGGMTDGYEHYKKIMENPPKNLIFPGIVSPERMRELYALADLFLLPSYNELFPMTILEAASCEAPIMLRDLDLYKVILEGNYRATAGREEMKEAILEYQANPAVLKDLKEKAKNISREYSEEHLLQIWLDFYEKQAALGRK,not soluble
16,MLSTSASLYLNELINEMRQLSETPIDCKNARMLLSKEISKVFDELYRHGQGFIDNGYGSDYNKNDFYSPHSANSGYSASPFPSRPSLPNHALSTSFYHNSFMTPIRNGRMRSPDQDLGDWSREKINDTQHVLQTKVYIPEPPVSIDGKKVKCNYIGRILGPSGMSARMIENQYDVTLLIRGAGSVRNKAMDERVRKRNEHLEEPLHVLLIARHNDKTKCEEILNKAAEKIESLLTPIHDEYKMDQLVSYAKMNGTYQERPKRKSQLDEQSHSNYWAPH,not soluble
